Measured values taken from IntAct's records for PubMed 16582879.

B1: Tyrosine-protein phosphatase non-receptor type 1 (Homo sapiens), P18031 (parent)
chain: MEMEKEFEQIDKSGSWAAIYQDIRHEASDFPCRVAKLPKNKNRNRYRDVSPFDHSRIKLHQEDNDYINASLIKMEEAQRSYILTQGPLPNTCGHFWEMVWEQKSRGVVMLNRVMEKGSLKCAQYWPQKEEKEMIFEDTNLKLTLISEDIKSYYTVRQLELENLTTQETREILHFHYTTWPDFGVPESPASFLNFLFKVRESGSLSPEHGPVVVHCSAGIGRSGTFCLADTCLLLMDKRKDPSSVDIKKVLLEMRKFRMGLIQTADQLRFSYLAVIEGAKFIMGDSSVQDQWKELSHEDLEPPPEHIPPPPRPPKRILEPHNGKCREFFPNHQWVKEETQEDKDCPIKEEKGSPLNAAPYGIESMSQDTEVRSRVVGGSLRGAQAASPAKGEPSLPEKDEDHALSYWKPFLVNMCVATVLTAGAYLCYRFLFNSNT

Variants of: B1
Details: with insr_human INSR

Row | effect of a mutation on the interaction | Variant
1 | increasing interaction | D181A
